This series concerns MS2 coat protein. The experiment in a line: apparent KD of MS2 coat protein; designed switch direction (-1 OFF switch, 1 ON switch): -1; higher = weaker reporter binding. Summed up:
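Transcription of designed RNA switches on Illumina chips was done by stalled E. coli RNA polymerase. SNAP-549-labelled MS2 coat protein was then titrated in doubling steps from 0.7 or 1.5 nM to 3 µM, with steps of 0.8–1.5 h at the lowest and 10–20 min at the highest concentration. The per-design median over clusters of curve-fitted normalised fluorescence is reported as apparent KD.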

The mark [1] stands for this setting: input ligand: microRNA oligo, concentration not stated.
The mark [2] stands for this setting: Eterna round: R95, input ligand: microRNA oligo, concentration not stated.

With “UUUAUAUAGUAAGGAUAUGUAUUAUUUUUGUCAACAGAAGGUACUGACAUGAGGAUCACCCAUGUUUUAGUGUGGGCAUGUAGU [JMF's solution 99] (Eterna round: R96, puzzle: Exclusion NG 1)”, under setting [1], the “apparent KD of MS2 coat protein” value came to 177 nM.
Turning to “UUUAUGCUAGGAUAUGCACCCUCGAACAUGAGGAUCACCCAUGUACAAUAAACGCAUGAAGCAGAAGGAGCUUCCA [EX5 A.20] (Eterna round: R97, puzzle: Exclusion 5)”, the “apparent KD of MS2 coat protein” value came to 56.4 nM (input ligand: FMN 200 uM) and 37.1 nM (input ligand: none).
For the sequence “UUUAUGUCAGGAUAUGAGUAGUAGAACAAUAGUACUACUACUCAGAAGGGACAUGAGGAUCACCCAUGUGCCUC [Fiskers Ex 4 Super stable 44 mod 22] (Eterna round: R96, puzzle: Exclusion 4)”, the “apparent KD of MS2 coat protein” value reads like this: (input ligand: FMN 200 uM) 326 nM; under setting [1], 32.3 nM; (input ligand: none) 40.4 nM.
For “UUUAUGUCAGGAUAUGAGUAGUAGAACAAUAGUACUACUACUCAGAAGGGACAUGAGGAUCACCCAUGUGCCUC [Fiskers Ex 4 Super stable 44 mod 22] (puzzle: Exclusion 4)”, the “apparent KD of MS2 coat protein” value under setting [2] came out at 33.6 nM.
In the case of “UUUCAUCAUGUAGGAUAUGUGUGGCGAAGCUAUACAGAAGGACAUGAGGAUCACCCAUGUUCUUGCGUCUGCGUACAGAUGCAA [14th something] (Eterna round: R96, puzzle: Exclusion NG 1)”, the “apparent KD of MS2 coat protein” value is 348 nM (input ligand: FMN 200 uM), 33.1 nM under setting [1] and 43.3 nM (input ligand: none).
Take “UUUCCCUGUGUGAGGAUAUACUUGUUUGGGUUUUUGUAGAAGGCACAUGAGGAUCACCCAUGUAUUUUGUCGUG [JR_BME4_Sub020] (puzzle: Brourd's mod of Exclusion 4)”: the “apparent KD of MS2 coat protein” value under setting [2] turned out to be 40.9 nM.
For the sequence “UUUCGGUCAGGAUAUCCCGUACUACUAGCCGCGACUUACGAGGAGAAGGGACAUGAGGAUCACCCAUGUGCGCU [Colors] (Eterna round: R97, puzzle: Exclusion 4)”, the “apparent KD of MS2 coat protein” value is, setting by setting: (input ligand: FMN 200 uM) 16.2 nM; (input ligand: none) 14.7 nM.
For “UUUGAAAAUGUAGGAUAUGGAAUAGGUAAGUAGCCAGAAGGACAUGAGGAUCACCCAUGUAAGAACAUAGGGAAAGAUAUGUUU [No clue what I'm doing] (Eterna round: R96, puzzle: Exclusion NG 1)”, the “apparent KD of MS2 coat protein” value (input ligand: FMN 200 uM) worked out at 90.8 nM, the “apparent KD of MS2 coat protein” value under setting [1] was 32.9 nM and the “apparent KD of MS2 coat protein” value (input ligand: none) is 44.7 nM.
Take “UUUGAUUAUGUGAGGAUAUACUGUUUGUAUUGAUUGUAGAAGGUACAUGAGGAUCACCCAUGUUUUGUAUUUAU [JR_BME4_Sub036] (puzzle: Brourd's mod of Exclusion 4)”: the “apparent KD of MS2 coat protein” value under setting [2] was found to be 17.1 nM.
For the sequence “UUUGUAUAUGAAGGAUAUACUUAACAUGAGGAUCACCCAUGUGGUGUUGUGAGUGAGUGAGUUUAGUAGAAGGUCAAUUCUUUU [JMF's solution 92] (Eterna round: R96, puzzle: Exclusion NG 2)”, the “apparent KD of MS2 coat protein” value came to 651 nM (input ligand: FMN 200 uM), 417 nM under setting [1] and 434 nM (input ligand: none).
“UUUGUCUGUGUGAGGAUAUACUUUGUUUGGUCGUUGUAGAAGGCACAUGAGGAUCACCCAUGUAGUUUGUUGUG [JR_BME4_Sub014] (puzzle: Brourd's mod of Exclusion 4)”: the “apparent KD of MS2 coat protein” value under setting [2] was found to be 20.3 nM.
Same read-out and setting: for “UUUGUUUAUGUGAGGAUAUACUGUUUGUAUUGAUUGUAGAAGGUACAUGAGGAUCACCCAUGUUUUGUAUUUAU [JR_BME4_Sub035] (puzzle: Brourd's mod of Exclusion 4)” the value was 17.7 nM.
Regarding “UUUUAACAAGCGAGAUCCUACAUGAGGAUCACCCAUGUAUGUCAUGGUUUCCAUGGUCUUUUUGCUCGUCUUGUGUG [jl TITIN mod 7] (Eterna round: R97, puzzle: Sensor, turn-off variant 1)”, the “apparent KD of MS2 coat protein” value is, setting by setting: (input ligand: FMN 200 uM) 40.9 nM; (input ligand: none) 44.1 nM.
“UUUUAACAUGAGGAUCACCCAUGUGAGGAUAUCGAAAUUUAUAUUAAUAUUAAUAAUUCGAGAAGGCACAUUUU [JMF 21] (puzzle: Exclusion 1)”: the “apparent KD of MS2 coat protein” value under setting [2] is 117 nM.
“UUUUAACAUGAGGAUCACCCAUGUGAGGAUAUCGAAAUUUAUAUUAAUAUUAAUUUAACGAGAAGGCACAUUUU [JMF 31] (puzzle: Exclusion 1)”: the “apparent KD of MS2 coat protein” value under setting [2] amounted to 88.5 nM.
Turning to “UUUUAACAUGAGGAUCACCCAUGUGAGGAUAUCGAAAUUUAUAUUAAUAUUAUUUUUUCGAGAAGGCACAUUUU [JMF 49] (puzzle: Exclusion 1)”, the “apparent KD of MS2 coat protein” value under setting [2] worked out at 148 nM.
Still for that read-out and setting: for “UUUUAACAUGAGGAUCACCCAUGUGAGGAUAUCGAAAUUUAUAUUAAUAUUUUUAAAUCGAGAAGGCACAUUUU [JMF 68] (puzzle: Exclusion 1)” the value was 98.9 nM.
For “UUUUACUCAGGAUAUACAUGAGGAUCACCCAUGUAUAUUGAAGAUAAUACAUGGGAAUGUAGAAGGGAGCUCAU [Omei Ex3 Pseudoloop 18] (Eterna round: R97, puzzle: Exclusion 3)”, the “apparent KD of MS2 coat protein” value by setting is: (input ligand: FMN 200 uM) 190 nM; (input ligand: none) 179 nM.
On the same counts, the results for “UUUUCGUCAGGAUAUUCUACUUAUUACAUGAGGAUCACCCAUGUGUAUGUACAAGGGUGUGAAGAAGGGACUUUUU [LRO-Excl5-10-mod A17d by Omei] (Eterna round: R97, puzzle: Exclusion 5)” are 305 nM and 1070 nM.
